In ChEMBL document CHEMBL2074562, “Substrate specificity of the rat liver Na(+)-bile salt cotransporter in Xenopus laevis oocytes and in CHO cells” (Am J Physiol, 1998) one finds Km data, which are given here for one protein.

Holding throughout (type): functional, cell-based
Substrate in data set [1]: C[C@H](CCC(=O)NCC(=O)O)[C@H]1CC[C@H]2[C@@H]3[C@H](O)C[C@@H]4C[C@H](O)CC[C@]4(C)[C@H]3C[C@H](O)[C@]12C
Put plainly: (§1) TP_TRANSPORTER: uptake in Ntcp-expressing CHO cells.

Substrate in data set [2]: C[C@H](CCC(=O)NCCS(=O)(=O)O)[C@H]1CC[C@H]2[C@@H]3[C@H](O)C[C@@H]4C[C@H](O)CC[C@]4(C)[C@H]3CC[C@]12C
The description is as §1.

Substrate in data set [3]: C[C@]12CC[C@@H]3c4ccc(OS(=O)(=O)O)cc4CC[C@H]3[C@@H]1CCC2=O
The data set is described as §1.

B1: Hepatic sodium/bile acid cotransporter (Rattus norvegicus) (protein)
chain: MEVHNVSAPFNFSLPPGFGHRATDKALSIILVLMLLLIMLSLGCTMEFSKIKAHLWKPKGVIVALVAQFGIMPLAAFLLGKIFHLSNIEALAILICGCSPGGNLSNLFTLAMKGDMNLSIVMTTCSSFSALGMMPLLLYVYSKGIYDGDLKDKVPYKGIMISLVIVLIPCTIGIVLKSKRPHYVPYILKGGMIITFLLSVAVTALSVINVGNSIMFVMTPHLLATSSLMPFSGFLMGYILSALFQLNPSCRRTISMETGFQNIQLCSTILNVTFPPEVIGPLFFFPLLYMIFQLAEGLLIIIIFRCYEKIKPPKDQTKITYKAAATEDATPAALEKGTHNGNIPPLQPGPSPNGLNSGQMAN
As a reminder, the Km is the substrate concentration at which the rate is half of its maximum. Consider B1, for which the Michaelis constant (Km) was found to be 27 µM in data set [1], 5 µM in data set [2] and 27 µM in data set [3].
